In patent US20180086804A1 (COMMISSARIAT A L ENERGIE ATOMIQUE ET AUX ENERGIES …, published 2018):
Where two headings read alike, the source gives them in different places. No end group written: not given here.

How the values were obtained:
HLA-DR7 (HLA-DRB1*07:01) [1] = target: T1, HLA-DR7 (HLA-DRB1*07:01) (human); assay: competition ELISA vs biotin-YKL
T1 construct: mature; purified from homozygous EBV-transformed lymphoblastoid cells with antibody L243

HLA-DR3 (HLA-DRB1*03:01) [2] = target: T2, HLA-DR3 (HLA-DRB1*03:01) (human); assay: competition ELISA vs biotin-MT 2-16
T2 construct: mature; purified from homozygous EBV-transformed lymphoblastoid cells with antibody L243

[3] = target: T3, HLA-DR13 (HLA-DRB1*13:01) (human); assay: competition ELISA vs biotin-B1 21-36
T3 construct: mature; purified from homozygous EBV-transformed lymphoblastoid cells with antibody L243

[4] = target: T4, HLA-DR15 (HLA-DRB1*15:01) (human); assay: competition ELISA vs biotin-A3 152-166
T4 construct: mature; purified from homozygous EBV-transformed lymphoblastoid cells with antibody L243

HLA-DR1 (HLA-DRB1*01:01) [5] = target: T5, HLA-DR1 (HLA-DRB1*01:01) (human); assay: competition ELISA vs biotin-HA 306-318;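 further: HLA and competitor incubated 24 to 72 h, maximal signal taken from wells lacking competitor, background from wells lacking HLA molecule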
T5 construct: mature; class II HLA molecule purified from homozygous EBV-transformed lymphoblastoid cells with antibody L243

[6] = target: T6, HLA-DRB5 (HLA-DRB5*01:01) (human); assay: competition ELISA vs biotin-HA 306-318;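 further: HLA and competitor incubated 24 to 72 h, maximal signal taken from wells lacking competitor, background from wells lacking HLA molecule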
T6 construct: mature; purified from homozygous EBV-transformed lymphoblastoid cells with antibody L243

[7] = target: T7, HLA-DR11 (HLA-DRB1*11:01) (human); assay: competition ELISA vs biotin-HA 306-318;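 further: HLA and competitor incubated 24 to 72 h, maximal signal taken from wells lacking competitor, background from wells lacking HLA molecule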
T7 construct: mature; purified from homozygous EBV-transformed lymphoblastoid cells with antibody L243

[8] = target: T8, HLA-DRB3 (HLA-DRB3*01:01) (human); assay: competition ELISA vs biotin-LOL 191-210
T8 construct: mature; purified from homozygous EBV-transformed lymphoblastoid cells with antibody L243

[9] = target: T9, HLA-DP402 (HLA-DPB1*04:02) (human, UniProt P20036 29-222); assay: competition ELISA vs biotin-Oxy 271-287
T9 construct: mature; purified from homozygous EBV-transformed lymphoblastoid cells with antibody B7/21

HLA-DR7 (HLA-DRB1*07:01) [10] = target: T1, HLA-DR7 (HLA-DRB1*07:01); assay: competition ELISA vs biotin-YKL; remark: listed apart in the source
HLA-DR3 (HLA-DRB1*03:01) [11] = target: T2, HLA-DR3 (HLA-DRB1*03:01); assay: competition ELISA vs biotin-MT 2-16; remark: listed apart in the source
[12] = target: T4, HLA-DR15 (HLA-DRB1*15:01); assay: competition ELISA vs biotin-A3 152-166; remark: listed apart in the source
HLA-DR1 (HLA-DRB1*01:01) [13] = target: T5, HLA-DR1 (HLA-DRB1*01:01); assay: competition ELISA vs biotin-HA 306-318; remark: listed apart in the source;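 further: HLA and competitor incubated 24 to 72 h, maximal signal taken from wells lacking competitor, background from wells lacking HLA molecule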
[14] = target: T6, HLA-DRB5 (HLA-DRB5*01:01); assay: competition ELISA vs biotin-HA 306-318; remark: listed apart in the source
HLA-DR4 (HLA-DRB1*04:01) [15] = target: T10, HLA-DR4 (HLA-DRB1*04:01) (human); assay: competition ELISA vs biotin-HA 306-318
T10 construct: mature; purified from homozygous EBV-transformed lymphoblastoid cells with antibody L243

[16] = target: T7, HLA-DR11 (HLA-DRB1*11:01); assay: competition ELISA vs biotin-HA 306-318; remark: listed apart in the source
[17] = target: T8, HLA-DRB3 (HLA-DRB3*01:01); assay: competition ELISA vs biotin-LOL 191-210; remark: listed apart in the source
[18] = target: T11, HLA-DRB4 (HLA-DRB4*01:01) (human); assay: competition ELISA vs biotin-E2/E168
T11 construct: mature; purified from homozygous EBV-transformed lymphoblastoid cells with antibody L243

HLA-DR4 (HLA-DRB1*04:01) [19] = target: T10, HLA-DR4 (HLA-DRB1*04:01); assay: competition ELISA vs biotin-HA 306-318; remark: listed apart in the source
[20] = target: T12, HLA-DP401 (HLA-DPB1*04:01) (human, UniProt P20036 29-222); assay: competition ELISA vs biotin-Oxy 271-287
T12 construct: mature; purified from homozygous EBV-transformed lymphoblastoid cells with antibody B7/21

[21] = target: T11, HLA-DRB4 (HLA-DRB4*01:01); assay: competition ELISA vs biotin-E2/E168; remark: listed apart in the source
[22] = target: T12, HLA-DP401 (HLA-DPB1*04:01); assay: competition ELISA vs biotin-Oxy 271-287; remark: listed apart in the source
[23] = target: T9, HLA-DP402 (HLA-DPB1*04:02); assay: competition ELISA vs biotin-Oxy 271-287; remark: listed apart in the source

Binder | relative affinity (HLA-DR7 (HLA-DRB1*07:01) [1]) | relative affinity (HLA-DR3 (HLA-DRB1*03:01) [2]) | relative affinity [3] | relative affinity [4] | relative affinity (HLA-DR1 (HLA-DRB1*01:01) [5]) | relative affinity [6] | relative affinity [7] | relative affinity [8] | relative affinity [9] | relative affinity (HLA-DR3 (HLA-DRB1*03:01) [11]) | relative affinity [12] | relative affinity (HLA-DR1 (HLA-DRB1*01:01) [13]) | relative affinity (HLA-DR4 (HLA-DRB1*04:01) [15]) | relative affinity [16] | relative affinity [18] | relative affinity (HLA-DR4 (HLA-DRB1*04:01) [19]) | relative affinity [20] | further results
SEYVKDIYAYLRQLE-NH2 [CCNB1 168-182] | 346 | 97 | 12 | 12 | 22 | 3 | 3 | 30 | 127 | – | – | – | – | – | – | – | – | –
PEIGDFAFVTDNTYT-NH2 [CCNB1 264-278] | – | – | – | – | – | – | – | – | – | 85 | 300 | 7000 | 2 | 1670 | – | – | – | relative affinity (HLA-DR7 (HLA-DRB1*07:01) [10]): 86; relative affinity [14]: 61; relative affinity [17]: 19
VQMKFRLLQETMYMT-NH2 [CCNB1 212-226] | 40 | 1 | 1 | 46 | 1 | 2 | 5 | 34 | 9 | – | – | – | – | – | 683 | 2 | 110 | –
MELTMLDYDMVHFPP-NH2 [CCNB1 327-341] | – | – | – | – | – | – | – | – | – | 32 | 10 | 418 | 22 | 216 | – | – | – | relative affinity [21]: 139; relative affinity [22]: 2; relative affinity [23]: 47
RPLPLHFLRRASKIG-NH2 [CCNB1 299-313] | 35 | – | 0.2 | 200 | 63 | 26 | 0.1 | – | – | – | – | – | – | – | 13 | 624 | – | –
TAMFIASKYEEMYPP-NH2 [CCNB1 250-264] | 4 | 4 | 3 | 9 | 22 | 82 | 6 | 34 | 1 | – | – | – | – | – | – | 70 | 0.1 | –
FAFVTDNTYTKHQIR-NH2 [CCNB1 269-283] | – | – | – | – | – | – | – | – | – | 0.1 | 17 | 1340 | 0.4 | 2190 | – | – | – | relative affinity (HLA-DR7 (HLA-DRB1*07:01) [10]): 577; relative affinity [14]: 42; relative affinity [17]: 34
DWLVQVQMKFRLLQE-NH2 [CCNB1 207-221] | 7 | 0.5 | 1 | 7 | 38 | 5 | 0.4 | 160 | 171 | – | – | – | – | – | 49 | – | – | –
GDFAFVTDNTYTKHQ-NH2 [CCNB1 267-281] | 22 | 0.2 | 62 | 86 | 1500 | 24 | 1330 | 38 | – | – | – | – | – | – | – | 1 | – | –
ETMYMTVSIIDRFMQ-NH2 [CCNB1 221-235] | 1 | 0.5 | 59 | 0.3 | 89 | 1 | 1 | 22 | 68 | – | – | – | – | – | 7 | 37 | 59 | –
